In assay [1] the target is HLA-A*1101 (human). Description: competition with 125I-labelled standard peptide on purified HLA-A*1101, gel filtration. (In general: SEC sorts molecules by how far they enter the pores of the column.)
For assay [2], the target named is HLA-A*0201 (human). Description: competition with 125I-labelled standard peptide on purified HLA, gel filtration.
Assay [3] has as its target HLA-A*2402 (human). Kind of assay: competition with 125I-labelled standard peptide for purified HLA-A*2402, gel filtration.
For assay [4], the target named is HLA-A*1101 (human). Description: competitive inhibition of 125I-labelled standard peptide binding to purified HLA, gel filtration.
The target in assay [5] is HLA-A*0301 (human). The assay is described as above.
The target of assay [6] is HLA-A*1101 (human). Description: competition with 125I-labelled standard peptide for purified HLA-A*1101, gel filtration.
For assay [7], the target named is HLA-A*0301 (human). Kind of assay: competition with 125I-labeled standard peptide for purified HLA-A*0301, gel filtration.
For assay [8], the target named is HLA-A*0301 (human). Kind of assay: competitive inhibition of 125I-labelled standard peptide binding to purified HLA-A*0301, gel filtration.
Assay [9] addresses HLA-B*5101 (human). Description: competition with 125I-labelled standard peptide for purified HLA, gel filtration.
In assay [10] the target is HLA-B*5301 (human). Described as above.
Where [11] appears, read: remark: other sources report otherwise.

Read-outs that look alike come from different tables or passages of the source.

For the molecule CCRSSRTRR (modifications not checked) [… (HPV16 E6, position 146, 9 amino acids)], the binding affinity ratio (IC50 of standard peptide / IC50 of test peptide) (ratio to standard peptide) in assay [1] is 0.0001.
In the case of VTFCCKCDST (modifications not checked) [HPV16 E7 55 …], the binding affinity ratio (IC50 of standard peptide / IC50 of test peptide) in assay [2] was 0.0001.
Take HYCYSLYGTTL (modifications not checked) [HPV16 E6 85 …]: in [3], the binding affinity ratio (IC50 of standard peptide / IC50 of test peptide) was determined as 0.065 and the relative binding ratio (IC50 of standard peptide / IC50 of test peptide) (ratio to standard peptide) is 0.065.
Regarding GNPYAVCDK (modifications not checked) [… (HPV16 E6, position 64, 9 amino acids)], in assay [1], the binding affinity ratio (IC50 of standard peptide / IC50 of test peptide) (ratio to standard peptide) stood at 0.0001.
With NSGQKKAKR (modifications not checked) [HPV18 E1 position 119 peptide …], the binding affinity ratio (IC50 of standard peptide / IC50 of test peptide) amounted to 0.0002 in assay [4] and 0.0005 in assay [5].
With TLRLCVQSTHV (modifications not checked), the binding affinity ratio (IC50 of standard peptide / IC50 of test peptide) in assay [2] was 0.0006.
For the molecule KLRAGQNHR (modifications not checked) [HPV18 E1 position 647 peptide …], the binding affinity ratio (IC50 of standard peptide / IC50 of test peptide) in [4] turned out to be 0.0013; in assay [5] it was 0.3; in assay [6], 0.0013.
For the molecule EYRHYCYSL (modifications not checked) [HPV16 E6 82 …], in assay [3], the binding affinity ratio (IC50 of standard peptide / IC50 of test peptide) came to 0.0051 and the relative binding ratio (IC50 of standard peptide / IC50 of test peptide) (ratio to standard peptide) is 0.0051.
Regarding AVCDKCLKFY (modifications not checked) [… (HPV16 E6, position 68, 10 amino acids)], the binding affinity ratio (IC50 of standard peptide / IC50 of test peptide) (ratio to standard peptide) in assay [1] amounted to 0.019.
Turning to LILALLRYK (modifications not checked) [HPV18 E1 position 281 peptide …], the binding affinity ratio (IC50 of standard peptide / IC50 of test peptide) in assay [4] was found to be 0.18; in assay [5] it was 0.27.
As for TLEDLLMGTL (modifications not checked), the binding affinity ratio (IC50 of standard peptide / IC50 of test peptide) in [2] came out at 0.0002.
For HLDKKQRFH (modifications not checked) [… (HPV16 E6, position 125, 9 amino acids)], the binding affinity ratio (IC50 of standard peptide / IC50 of test peptide) (ratio to standard peptide) in assay [1] (setting [11]) was 0.0001.
As for LTTNIHPAK (modifications not checked) [HPV18 E1 position 571 peptide …], the binding affinity ratio (IC50 of standard peptide / IC50 of test peptide) in assay [4] stood at 0.12; in assay [5] it was 0.091.
Consider LCPEEKQRH (modifications not checked) [… (HPV16 E6, position 117, 9 amino acids)], for which the binding affinity ratio (IC50 of standard peptide / IC50 of test peptide) (ratio to standard peptide) in assay [1] came to 0.0001.
For the molecule TLEDLLMGT (modifications not checked), in [2] (setting [11]), the binding affinity ratio (IC50 of standard peptide / IC50 of test peptide) was determined as 0.0002.
Take TMLCMCCK (modifications not checked) [HPV18 E7 60-67 peptide TMLCMCCK]: the relative binding ratio (IC50 of standard peptide / IC50 of test peptide) in assay [7] was 0.024.
As for HYSDSVYGDTL (modifications not checked) [HPV18 E6 80-90 peptide …], the relative binding ratio (IC50 of standard peptide / IC50 of test peptide) (ratio to standard peptide) in assay [3] was 0.0069.
Take QAEPDRAHY (modifications not checked) [HPV16 E7 44 …]: in [8], the relative binding ratio (IC50 of standard peptide / IC50 of test peptide) (ratio to standard peptide) came out at 0.0002.
YMLDLQPET (modifications not checked) [HPV16 E7 11 …]: the binding affinity ratio (IC50 of standard peptide / IC50 of test peptide) in [2] was found to be 0.14.
As for AMFQDPQER (modifications not checked) [… (HPV16 E6, position 7, 9 amino acids)], in [1] (setting [11]), the binding affinity ratio (IC50 of standard peptide / IC50 of test peptide) (ratio to standard peptide) amounted to 0.032.
Regarding NIHPAKDNR (modifications not checked) [HPV18 E1 position 574 peptide …], the binding affinity ratio (IC50 of standard peptide / IC50 of test peptide) came out at 0.0002 in assay [4] and 0.0005 in assay [5].
In the case of QLFLNTLSF (modifications not checked) [HPV18 E7 88-96 peptide …], in assay [7], the relative binding ratio (IC50 of standard peptide / IC50 of test peptide) stood at 0.0005.
Take RIKLVVESSA (modifications not checked) [HPV18 E7 71-80 peptide …]: the relative binding ratio (IC50 of standard peptide / IC50 of test peptide) in assay [7] stood at 0.0005.
For FTFPNPFPF (modifications not checked) [HPV31 E1 566 … (A03 motif peptide)], the relative binding ratio (IC50 of standard peptide / IC50 of test peptide) (ratio to standard peptide) in [8] turned out to be 0.0008.
On to KSFLKGTPK (modifications not checked) [HPV18 E1 position 468 peptide …], for which the binding affinity ratio (IC50 of standard peptide / IC50 of test peptide) in [4] is 0.0015; in assay [5], 0.0003; in assay [6], 0.0015.
As to WTYFDTYMR (modifications not checked) [HPV18 E1 position 536 peptide …], the binding affinity ratio (IC50 of standard peptide / IC50 of test peptide) in [4] came to 0.012; in assay [5], 0.0005.
In the case of STLRLCVQST (modifications not checked) [HPV16 E7 63 …], in [2], the binding affinity ratio (IC50 of standard peptide / IC50 of test peptide) was 0.0012.
On to LSFVCPWCA (modifications not checked) [HPV18 E7 94-102 peptide …], for which, in assay [7], the relative binding ratio (IC50 of standard peptide / IC50 of test peptide) was determined as 0.0005.
Consider CPEEKQRHL (modifications not checked) [HPV31 E6 111 …], for which the results for the relative binding ratio (IC50 of standard peptide / IC50 of test peptide) in [9] and in assay [10] were 0.0074 and 0.0006, respectively.
Take KLTNTGLYNL (modifications not checked) [HPV18 E6 92-101 peptide …]: the relative binding ratio (IC50 of standard peptide / IC50 of test peptide) (ratio to standard peptide) in assay [3] was 0.0001.
With AVCDKCLK (modifications not checked) [AVCDKCLK (HPV16 E6, position 68, 8 amino acids)], the binding affinity ratio (IC50 of standard peptide / IC50 of test peptide) (ratio to standard peptide) in assay [1] amounted to 0.011.
As for IVYRDGNPY (modifications not checked) [… (HPV16 E6, position 59, 9 amino acids)], the binding affinity ratio (IC50 of standard peptide / IC50 of test peptide) (ratio to standard peptide) in assay [1] (setting [11]) came out at 0.15.
With TLRLCVQST (modifications not checked), the binding affinity ratio (IC50 of standard peptide / IC50 of test peptide) in [2] was found to be 0.0061.
Consider NIRGRWTGR (modifications not checked) [… (HPV16 E6, position 134, 9 amino acids)], for which the binding affinity ratio (IC50 of standard peptide / IC50 of test peptide) (ratio to standard peptide) in assay [1] was found to be 0.0005.
Consider CMSCCRSSR (modifications not checked) [… (HPV16 E6, position 143, 9 amino acids)], for which the binding affinity ratio (IC50 of standard peptide / IC50 of test peptide) (ratio to standard peptide) in assay [1] worked out at 0.0001.
Turning to QVLHVLKRK (modifications not checked) [HPV18 E1 80-88 peptide …], the binding affinity ratio relative to standard peptide (IC50 standard / IC50 test) in [7] is 0.0028.
Consider QVLHVLKRK (modifications not checked) [HPV18 E1 position 80 peptide …], for which the figures for the binding affinity ratio (IC50 of standard peptide / IC50 of test peptide) in [4] and in [5] were 0.002 and 0.0028, respectively.

For the origin of these results see patent US7026443.
